Broadly, the Kd is the constant that tells how readily two partners part at equilibrium. A higher Kd goes with lower affinity.

For the assay, the target named is biotinylated HA antigen of B/Florida/04/2006 (influenza B virus B/Florida/04/2006, biotin (site not stated)). In words: BLI. Background: Biolayer interferometry detects binding as a change in optical thickness at a sensor tip.

B1: TRL848 (antibody, V domains shown)
VH: QVQLLESGGDVVQPGTSLRLSCAASGFSLWTSGMHWVRQAPGKGLEWVAVMSYDETKKYYADSVRGRFSISRDNSRNTLYLQMNSLRVEDTAVYFCAKPRLDYLDYFHAADSWGQGTLVSVSS
VL: DIVLTQPPSVSVAPGQTATITCGGNYIGSKSVNWYQQRPGHAPVLVVYDDSDRPSGIPDRFSGSNSRSTATTATLTISRVEAGDEADYYCQVWETSEDLWVFGGGTKLTVL
Consider B1, for which binding was characterised by a dissociation constant (Kd) of 1.7 nM.

B2: TRL847 (antibody, V domains shown)
VH: QVQLVESGGGLVQPGGSLRLSCVASGFTFSRFSMNWVRQAPGMGLEWVSYISDTGRTIYYADSVKGRFTISRDNDKNTLYLQMKSLRDEDSAFYYCARDPDTPFVRAFDSWGQGVLVTVSS
VL: DIVMTQSPSFLSASVGDRVTITCRTSQVISSYLAWYQQRPGKAPKLLIYAASTLQSGVPSRFSGSGSGTRFSLTISNLQPEDFATYFCQQLTTYPPITFGQGTRLEIK
With B2, binding was characterised by a dissociation constant (Kd) of 0.7 nM.

B3: TRL854 (antibody, V domains shown)
VH: QVQLVESGAEVKKPGASVRVSCKGSGYTFTAYHMHWVRQAPGQGFEWVGWINPNSGATYYTSTFEGRVTMTRDTSITTAYMELSSLRSDDTAVYYCATDIVVERDASLGGFNSYGMDVWGQGTTVTVSS
VL: DIEMTQSPLSLPVTPGEPASISCRSSQSLLHSNGYNHLAWYLQKPGRSPHLLIYLASTRASGVPDRFSGSGSGTDFTLKISRVEAEDVGIYYCMQSLQTSITFGQGTRLEIK
The molecule B3 displayed a Kd of 8.8 nM.

Source of the values: PMC5923107 (2018).
